Experimental data: the DeepSol protein solubility set

Experiment: soluble on expression in E. coli; label from the status in PepcDB or PDB records

Sequence	soluble on expression in E. coli
MALWGGRFSQAADQRFKQFNDSLRFDYRLAEQDIIGSVAWSKALVTVGVLNADEQQQLEQALSVLLEEVQANPHAILASDAEDIHSWVETKLIDKVGDLGKKLHTGRSRNDQVATDLKLWCKFQITELQTAVQQLQQALVMTAEANQDAVMPGYTHLQRAQPVTFAHWCLAYVEMLSRDESRLQDTLKRLDVSPLGCGALAGTAYAIDREQLAGWLGFASATRNSLDSVSDRDHVLELLSDASIGMVHLSRFAEDLIFFNSGEAAFVDLSDRVTSGSSLMPQKKNPDALELIRGKCGRVQGALTGMTMTLKGLPLAYNKDMQEDKEGLFDALDTWLDCLHMAALVLDGIQVKRPRCKEAAEQGYANATELADYLVAKGVPFREAHHIVGEAVVEAIRQGKALEALALSDLQQFSSVIGDDVYPILALQSCLDKRVAKGGVSPQQVASAIAEAKARLF	not soluble
MALWVDKYRPKDLLGKDGVDYHIEQANHLKFLSADCMPHLLFCGPSGAGKKTRIKCLLRELYGVGVEKTQLIMKSFTSPSNKKLEIQTVSSNYHIEMTPSDVGIYDRVVVQDLVKEMAQTSQIESTSQRSFKVVVLCEADSLTRDAQHGLRRTMEKYANNCKIVLSCESLSRIIEPLQSRCIIINVPAPTDEDVTKVLRKVIERESFLLPENVLQKIVEKSEGNLRRAILMTEALRMENESGVAESVVIPVPEWEIYIQETARLILQKQSSDMLLKVRERLYELLSRCIPPTVIFKKLLEHLLPKCPPQIAREVVSEAAKFEHRLVLGQKAIFHLEGFVAAFMDIYLTNASKPK	not soluble
MAMHPRKDWYELTRATNWTPSYVTEEQLFPERMSGHMGIPLEKWESYDEPYKTSYPEYVSIQREKDAGAYSVKAALERAKIYENSDPGWISTLKSHYGAIAVGEYAAVTGEGRMARFSKAPGNRNMATFGMMDELRHGQLQLFFPHEYCKKDRQFDWAWRAYHSNEWAAIAAKHFFDDIITGRDAISVAIMLTFSFETGFTNMQFLGLAADAAEAGDYTFANLISSIQTDESRHAQQGGPALQLLIENGKREEAQKKVDMAIWRAWRLFAVLTGPVMDYYTPLEDRSQSFKEFMYEWIIGQFERSLIDLGLDKPWYWDLFLKDIDELHHSYHMGVWYWRTTAWWNPAAGVTPEERDWLEEKYPGWNKRWGRCWDVITENVLNDRMDLVSPETLPSVCNMSQIPLVGVPGDDWNIEVFSLEHNGRLYHFGSEVDRWVFQQDPVQYQNHMNIVDRFLAGQIQPMTLEGALKYMGFQSIEEMGKDAHDFAWADKCKPAMKKSA	soluble
MAMSQQDLPTLFYSGKSNSAVPIISESELQTITAEPWLEISKKGLQLEGLNFDRQGQLFLLDVFEGNIFKINPETKEIKRPFVSHKANPAAIKIHKDGRLFVCYLGDFKSTGGIFAATENGDNLQDIIEDLSTAYCIDDMVFDSKGGFYFTDFRGYSTNPLGGVYYVSPDFRTVTPIIQNISVANGIALSTDEKVLWVTETTANRLHRIALEDDGVTIQPFGATIPYYFTGHEGPDSCCIDSDDNLYVAMYGQGRVLVFNKRGYPIGQILIPGRDEGHMLRSTHPQFIPGTNQLIICSNDIEMGGGSMLYTVNGFAKGHQSFQFQLEHHHHHH	soluble
MAMSRQCTHYGRWPQHGFTSLKKLTPQSVTSRIQPGTDVIVCAEMDEHWGYFCAKKRQRWLVDTYDKIRRTDVDHVFGERTLATLERLLSLLSAFEVAVWMTDGWPLYESRLKGKLHVISKRYTQRIERHNLNLRQHLARLVRKSLSFSKSVELHSGIILEHHHHHH	not soluble
MAMTKLDATLAMLKELTDARGIAGNEREPREVMKKYIEPFADELSTDNLGSLVAKKVGEENGPKIMVAGHLDEVGFMITQIDDKGFLRFQTVGGWWSQVMLAQRVTIVTRKGDVTGVIGSKPPHILPPEARKKPVEIKDMFIDIGASSQEEAMEWGVRPGDQVVPYFEFQVMKNEKMLLAKAWDNRIGCAIAIDVLKQLKDEKHPNVVYGVGTVQEEVGLRGAKTSANYIKPDIAFAVDVGIAGDTPGVTSKEAQSKMGDGPQIILYDASVIGHTGLRDFVVDVADELQIPYQYDSVAGGGTDAGAIHIAVNGIPSMAITIATRYIHSHAAMLHRDDYENAVKLIVEVIKRLDKEAVHNITFN	not soluble
MANDGGAKLSKNLLRMKFMQRGLDAEVKKQLDEEEKRIISDEHWFLDLPELKAKENHIIEERSFVPCEDLVYGRMSFKGFNPDVEKLMLLMNAPREEEDEEEEDESMNKMETDITDEEMAKRYQSLVESMRKKFAKKRDRSAVSNKEDVNCNVTDDIRPKRAFMKPQD	soluble
MANIVITTHWTDGDVLPFIKIGSELRKRGHRVTLITHCYYKNMAKSQGLDFEAWDSPEQHRQMLEDMKEELDPLRNPCALERYKKKYESIEVRLREFKKVIAHCNTTDTVLVAKNRSSVAAYLAAEKLNIPLVCVFMAPSEMLSMVSYEMMLGKLLANELNLLRKELNLAPVKSWLAWQSSPKRQIALWPDWFAEPIEEWPAEVINVGFPLSYNERFDNLPPDLMEDLLGDEPPVVITGGTSKTIRPEFYPLCVETCRLSGRKGILVTRYEELLPKELPDKVKWFRELPLNKIFPYTSAVIHHGGMGTLSGAIAAGVPQLVLPYYLDRPYNALCLKKLGIAEYLPPIKWKPEIMVDALQKITASSFRERCKLFSKKVSLQNTMNEICCLIEETVNNEEFLLKDISLLQTT	not soluble
MANLFRNLFGHKKSHSKGDEDHENMDRDTSRRSIRAAPSSSSRSMARGARFQDDSMLPPTAAYHTQNASARVRRGPKSCPGEYIEEEAPSSSRSFNVDSFRREPRDQRRRSSNMVQSTSKMTSSSSSRAAPRYQQWETSEYGSENTSPIGYHRHYQHRRHHPEEEEDEEEDEEEVYKKSMRYQDLKKKIRAHYEERLFNYERTQRNDHRQIKELEKEKDDLVKMLLQSNAKLDKEKKKTEYFKRKWQEAEHKIPFGNPIMPQFGFPPATPQFPQMFQFQPNSGGSAQRYSFMGAPMHPISSSNTPTTSGMDTTHGGAGESLVPASDVSYLAPLVPAPPTLPLLELNTSQGPSTSGISQQNPQQSSSSFFHDDDEDQDETKNFRDEEIESPRCHGSTSTLKNDEEAAELSDFLSKSNLTTLEEGKDSGFSTTPDDAKEPEKVAAN	not soluble
MANNLMSGIIAQQPPIEAESDVHVVKSRLEWGEPAFTILDVRDRSIYNEGHIMGAMSMPIDELTERAAISLDTSRDIYIYGTNDGQTTQAAQILRSAGFKNVSQLKGGFGAWKAIGGATEGIIESRTPAAADDYNVVSRIQNHIETQQK	not soluble
MANPRGFCAGVDRAISIVENALAIYGAPIYVRHEVVHNRYVVDSLRERGAIFIEQISEVPDGAILIFSAHGVSQAVRNEAKSRDLTVFDATCPLVTKVHMEVARASRRGEESILIGHAGHPEVEGTMGQYSNPEGGMYLVESPDDVWKLTVKNEEKLSFMTQTTLSVDDTSDVIDALRKRFPKIVGPRKDDICYATTNRQEAVRALAEQAEVVLVVGSKNSSNSNRLAELAQRMGKHAFLIDDAKDIQEEWVKEVKCVGVTAGASAPDILVQNVVARLQQLGGGEAIPLEGREENIVFEVPKELRVDIREVD	not soluble
MANQHFAKEAPETYWKTSTDLPSFPALQEDTECDVTIIGGGITGITTAYELTKRGFRVVLIEANQVLNGTTAHTTAKVTAQHDMIYDEFIRHFGLNHARLYYEANQNAIDYIKGIVDEHQIDCEWIEQDAYLYTANENAVQKIHTEHEAYTKLGIERDLIKDLPIPLGSKLALVMKNQAQFHPLQYLKALLEQIVQKGGRIYEETVALDIKKGERPEVVTKSRHAIKSRFIICCSHFPFYDGGGLYAARMYSDRSYVLAIKPKIEYPEGMYLSIDQPSVALRYTVVNGEKLILFSGVSHKTGQGKAMSTHYETLRQLAESTIGIESIPYYWSTQDLVTIDKIPFIGPMSENEDNILVATGFKKWGMTSSAVAATLLSDLVEKKENPYESIFTPSRFHLNPGLQKVISYNADVAKHLIKGKLEKPDVQFEDISPGEGKAVTINGRRAGAFRDETGCLHLVDTTCTHLGCEVEWNDSEHTWDCPCHGSRFKPSGEVVEGPAIKPLKQIDLDLEHHHHHH	soluble
MANTLIVGAGWLGTPLAQALLVEGHDVVITRRSQARLDERPSTIANAALLDLNDENAAQKLDEIIQSNHIERIVGAFPPGFRRGSGREYAQQWSTLVKAAKQHAIEKLVMISSTTVYPNLPTDMKEESASLALVQTHPHFSDNAKIMLEAEQSVIDSGINYAILRCSGLFGPDRHPARFAMRLKQVSRKAPANMLHQSDAVAVAQFALDHLSNQIINVTTPHTVSKAEFYQAAITKSGAEISLPPVTEDADKRILADKLVSLGYQFRFNSTLDAL	not soluble
MANWQCVKQCGACCNLDPAERPEIEDYLTPDELEIYFSMVGEGGWCVNFDHTTRECRIYSTRPRFCRVEPDIFQDMYGIESEELNDFAIECCRQQIEGVYGDRSLEMLRFDKAVGILEHHHHHH	soluble
MAPDLSGTWYVLEGDPGEHLVVEALGERLSGIWTSRELAEAFLAHHPHLGMRVSALESRALKEAYLRALGMLQVEAVMVDYRPGTHRAQVARVKDLLEEVRRA	soluble
MAPTLLELTASIVSSHAAVSELSTEELVQEIQKVHATLQQLEGGAAAPEVAAEEAKAPAMTLKKAFQADQVCCMICGKGGMKTLTRHLAQVHQMKPGEYRKQFNIPSSQPLTAKKFSEARKQMAKDRGLAENLAKARAVRAAKIQEKKAAAEKPAKTKATRAKKATA	not soluble
MAPWKIEEVKTLKGLIKSKPVVAIVDMMDVPAPQLQEIRDKIRDKVKLRMSRNTLIIRALKEAAEELNNPKLAELANYVERGAAILVTDMNPFKLYKLLEENKSPAPVRGGQIAPCDIKVEKGSTGMPPGPFLGELKSVGIPAAIEKGKIAIKEDKVVVKKGEVVSPKLAAVLDRLGIKPIKVGLNILAVYEDGIIYTPDVLKVDEEKLLADI	soluble
MAQEFSGDVFVISVAAELAGMHAQTLRTYDRLGLVTPQRTRGGGRRYSRDDVELLRTVQHLSQVEGVNLAGIKSIIELKKENAQLRKELAAARAEADVLKNRGARPRGEIVHVPRSTAVVMWQPRRSSRQHD	not soluble
MAQHFRLSTAARQLSSDSLVCLPDAEIFQRLKQARWGNADNFVCPHCHIRHLAYFISTRKQWQCKHCQHRFSITAGTIFQGAKLPLRKILLAILYFATESKGLSAIALSHKLNVQYKTAWVLLHKFRESLDKAKDLTPLNGEVHIDGAYTNYYIRPKNFRHKRIDRRKKRYQRADKSCVLVFRQRAANQAVMKGADRSIVALVKEENTKDVLELTQRLVKPNSTIHADENPAYDCLAFHYDLWRVNHSQEYRSIEGITNNLAESFFARLRRAITGIYHKMSNKYLMYYANEMVWREDHRRKSVKEKFEQLLTCCLNTLPSRDFTGYWQGNKKGEAVFGLASLTASNDLHYLKAALEHHHHHH	soluble
MAQLYFYYSAMNAGKSTALLQSSYNYQERGMRTVVYTAEIDDRFGAGKVSSRIGLSSPAKLFNQNSSLFDEIRAEHEQQAIHCVLVDECQFLTRQQVYELSEVVDQLDIPVLCYGLRTDFRGELFIGSQYLLAWSDKLVELKTICFCGRKASMVLRLDQAGRPYNEGEQVVIGGNERYVSVCRKHYKEALQVGSLTAIQERHRHD	not soluble
MAQQKKTIAVVGATGRQGASLIRVAAAVGHHVRAQVHSLKGLIAEELQAIPNVTLFQGPLLNNVPLMDTLFEGAHLAFINTTSQAGDEIAIGKDLADAAKRAGTIQHYIYSSMPDHSLYGPWPAVPMWAPKFTVENYVRQLGLPSTFVYAGIYNNNFTSLPYPLFQMELMPDGTFEWHAPFDPDIPLPWLDAEHDVGPALLQIFKDGPQKWNGHRIALTFETLSPVQVCAAFSRALNRRVTYVQVPKVEIKVNIPVGYREQLEAIEVVFGEHKAPYFPLPEFSRPAAGSPKGLGPANGKGAGAGMMQGPGGVISQRVTDEARKLWSGWRDMEEYAREVFPIEEEANGLDWML	soluble
